Experiments:
[1] = molecular target: BiP NBD (human BiP nucleotide binding domain, aa 26-405, from 6His-Smt3-BiP NBD) (human) (UniProt P11021); assay: MST
[2] = molecular target: BiP NBD (human BiP nucleotide binding domain, aa 26-405, from 6His-Smt3-BiP NBD) (human) (UniProt P11021); assay: SPR

Sequence of UniProt P11021 (P11021 26-405): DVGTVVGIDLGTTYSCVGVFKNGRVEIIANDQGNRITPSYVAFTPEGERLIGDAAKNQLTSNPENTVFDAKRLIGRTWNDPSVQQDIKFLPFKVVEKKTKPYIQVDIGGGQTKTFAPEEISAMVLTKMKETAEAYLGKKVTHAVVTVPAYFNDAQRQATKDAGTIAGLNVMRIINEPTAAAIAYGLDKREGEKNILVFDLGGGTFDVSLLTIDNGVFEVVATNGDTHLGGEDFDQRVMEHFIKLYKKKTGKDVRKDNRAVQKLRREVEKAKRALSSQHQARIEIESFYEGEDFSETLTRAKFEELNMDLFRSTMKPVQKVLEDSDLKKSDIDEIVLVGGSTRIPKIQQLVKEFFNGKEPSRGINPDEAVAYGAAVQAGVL

Row | Substance | Kd [1] [µM] | Kd [2] [µM]
1 | CDNF A134Q purified from CHO cells (natural protein) | > 10 | 
2 | FL-CDNF (aa 1-161) purified from E. coli (natural protein) |  | 23.4
3 | CDNF V118Y-E137A double mutant purified from CHO cells (natural protein) | > 10 | 

— publication doi:10.1101/2025.07.08.663636
